The labels stand for the following.
B1: GLS3000 H34V one-arm antibody (antibody, human IgG1, kappa, L234A L235A, N297A, name in Kabat numbering)
light: DIVMTQSPLSLPVTPGEPASISCRSSQSLVHSNRNTYLVWYQQKPGQAPRLLIYKVSNRFSGVPDRFSGSGSGTDFTLKISRVEAEDVGVYYCGQGTQVPYTFGQGTKLEIKRTVAAPSVFIFPPSDEQLKSGTASVVCLLNNFYPREAKVQWKVDNALQSGNSQESVTEQDSKDSTYSLSSTLTLSKADYEKHKVYACEVTHQGLSSPVTKSFNRGEC
heavy: QVQLVESGGGVVQPGRSLRLSCAASGFTFSNAWMHWVRQAPGKGLEWVAQIKAKSNNYATYYAESVKGRFTISRDDSKNSLYLQMNSLKTEDTAVYYCRYVHYGAYYGVDAWGQGTTVTVSSASTKGPSVFPLAPSSKSTSGGTAALGCLVKDYFPEPVTVSWNSGALTSGVHTFPAVLQSSGLYSLSSVVTVPSSSLGTQTYICNVNHKPSNTKVDKKVEPKSCDKTHTCPPCPAPEAAGGPSVFLFPPKPKDTLMISRTPEVTCVVVDVSHEDPEVKFNWYVDGVEVHNAKTKPREEQYASTYRVVSVLTVLHQDWLNGKEYKCKVSNKALPAPIEKTISKAKGQPREPQVYTLPPSRCELTKNQVSLSCAVKGFYPSDIAVEWESNGQPENNYKTTPPVLDSDGSFFLVSKLTVDKSRWQQGNVFSCSVMHEALHNHYTQKSLSLSPDYKDDDDK
chain: EPKSSDKTHTCPPCPAPELLGGPSVFLFPPKPKDTLMISRTPEVTCVVVDVSHEDPEVKFNWYVDGVEVHNAKTKPREEQYNSTYRVVSVLTVLHQDWLNGKEYKCKVSNKALPAPIEKTISKAKGQPREPQVCTLPPSRDELTKNQVSLWCLVKGFYPSDIAVEWESNGQPENNYKTTPPVLDSDGSFFLYSKLTVDKSRWQQGNVFSCSVMHEALHNRYTQKSLSLSP
B2: GLS3000 L33P one-arm antibody (antibody, human IgG1, kappa, L234A L235A, N297A, name in Kabat numbering)
light: B1 light with L38P, V39H
heavy: B1 heavy
chain: B1 chain
B3: GLS3000 K50G one-arm antibody (antibody, human IgG1, kappa, L234A L235A, N297A, name in Kabat numbering)
light: B1 light with V39H, K55G
heavy: B1 heavy
chain: B1 chain
B4: GLS3000 N53H one-arm antibody (antibody, human IgG1, kappa, L234A L235A, N297A, name in Kabat numbering)
light: B1 light with V39H, N58H
heavy: B1 heavy
chain: B1 chain
B5: GLS3000 H34Y one-arm antibody (antibody, human IgG1, kappa, L234A L235A, N297A, name in Kabat numbering)
light: B1 light with V39Y
heavy: B1 heavy
chain: B1 chain
B6: GLS3000 L33I one-arm antibody (antibody, human IgG1, kappa, L234A L235A, N297A, name in Kabat numbering)
light: B1 light with L38I, V39H
heavy: B1 heavy
chain: B1 chain
B7: GLS3000 K50R one-arm antibody (antibody, human IgG1, kappa, L234A L235A, N297A, name in Kabat numbering)
light: B1 light with V39H, K55R
heavy: B1 heavy
chain: B1 chain
B8: GLS3000 K50Y one-arm antibody (antibody, human IgG1, kappa, L234A L235A, N297A, name in Kabat numbering)
light: B1 light with V39H, K55Y
heavy: B1 heavy
chain: B1 chain
B9: GLS3000 K50P one-arm antibody (antibody, human IgG1, kappa, L234A L235A, N297A, name in Kabat numbering)
light: B1 light with V39H, K55P
heavy: B1 heavy
chain: B1 chain
B10: GLS3000 K74T one-arm antibody (antibody, human IgG1, kappa, L234A L235A, N297A, name in Kabat numbering)
light: B1 light with V39H, K79T
heavy: B1 heavy
chain: B1 chain
B11: GLS3000 K50Q one-arm antibody (antibody, human IgG1, kappa, L234A L235A, N297A, name in Kabat numbering)
light: B1 light with V39H, K55Q
heavy: B1 heavy
chain: B1 chain
B12: GLS3000 N53L one-arm antibody (antibody, human IgG1, kappa, L234A L235A, N297A, name in Kabat numbering)
light: B1 light with V39H, N58L
heavy: B1 heavy
chain: B1 chain
B13: GLS3000 L33V one-arm antibody (antibody, human IgG1, kappa, L234A L235A, N297A, name in Kabat numbering)
light: B1 light with L38V, V39H
heavy: B1 heavy
chain: B1 chain
B14: GLS3000 K50E one-arm antibody (antibody, human IgG1, kappa, L234A L235A, N297A, name in Kabat numbering)
light: B1 light with V39H, K55E
heavy: B1 heavy
chain: B1 chain
B15: GLS3000 K107E one-arm antibody (antibody, human IgG1, kappa, L234A L235A, N297A, name in Kabat numbering)
light: B1 light with V39H, K112E
heavy: B1 heavy
chain: B1 chain
B16: GLS3000 N53R one-arm antibody (antibody, human IgG1, kappa, L234A L235A, N297A, name in Kabat numbering)
light: B1 light with V39H, N58R
heavy: B1 heavy
chain: B1 chain
B17: GLS3000 N53M one-arm antibody (antibody, human IgG1, kappa, L234A L235A, N297A, name in Kabat numbering)
light: B1 light with V39H, N58M
heavy: B1 heavy
chain: B1 chain
B18: GLS3000 K50S one-arm antibody (antibody, human IgG1, kappa, L234A L235A, N297A, name in Kabat numbering)
light: B1 light with V39H, K55S
heavy: B1 heavy
chain: B1 chain
B19: GLS3000 N53K one-arm antibody (antibody, human IgG1, kappa, L234A L235A, N297A, name in Kabat numbering)
light: B1 light with V39H, N58K
heavy: B1 heavy
chain: B1 chain
B20: GLS3000 N53G one-arm antibody (antibody, human IgG1, kappa, L234A L235A, N297A, name in Kabat numbering)
light: B1 light with V39H, N58G
heavy: B1 heavy
chain: B1 chain
B21: GLS3000 N53E one-arm antibody (antibody, human IgG1, kappa, L234A L235A, N297A, name in Kabat numbering)
light: B1 light with V39H, N58E
heavy: B1 heavy
chain: B1 chain
B22: GLS3000 L33E one-arm antibody (antibody, human IgG1, kappa, L234A L235A, N297A, name in Kabat numbering)
light: B1 light with L38E, V39H
heavy: B1 heavy
chain: B1 chain
B23: GLS3000 N53Q one-arm antibody (antibody, human IgG1, kappa, L234A L235A, N297A, name in Kabat numbering)
light: B1 light with V39H, N58Q
heavy: B1 heavy
chain: B1 chain
B24: GLS3000 K50T one-arm antibody (antibody, human IgG1, kappa, L234A L235A, N297A, name in Kabat numbering)
light: B1 light with V39H, K55T
heavy: B1 heavy
chain: B1 chain
B25: GLS3000 N53S one-arm antibody (antibody, human IgG1, kappa, L234A L235A, N297A, name in Kabat numbering)
light: B1 light with V39H, N58S
heavy: B1 heavy
chain: B1 chain
B26: GLS3000 N53I one-arm antibody (antibody, human IgG1, kappa, L234A L235A, N297A, name in Kabat numbering)
light: B1 light with V39H, N58I
heavy: B1 heavy
chain: B1 chain
B27: GLS3000 L33F one-arm antibody (antibody, human IgG1, kappa, L234A L235A, N297A, name in Kabat numbering)
light: B1 light with L38F, V39H
heavy: B1 heavy
chain: B1 chain
B28: GLS3000 K50L one-arm antibody (antibody, human IgG1, kappa, L234A L235A, N297A, name in Kabat numbering)
light: B1 light with V39H, K55L
heavy: B1 heavy
chain: B1 chain
B29: GLS3000 N53P one-arm antibody (antibody, human IgG1, kappa, L234A L235A, N297A, name in Kabat numbering)
light: B1 light with V39H, N58P
heavy: B1 heavy
chain: B1 chain
B30: GLS3000 N53F one-arm antibody (antibody, human IgG1, kappa, L234A L235A, N297A, name in Kabat numbering)
light: B1 light with V39H, N58F
heavy: B1 heavy
chain: B1 chain
B31: GLS3000 L33M one-arm antibody (antibody, human IgG1, kappa, L234A L235A, N297A, name in Kabat numbering)
light: B1 light with L38M, V39H
heavy: B1 heavy
chain: B1 chain
B32: GLS3000 H34W one-arm antibody (antibody, human IgG1, kappa, L234A L235A, N297A, name in Kabat numbering)
light: B1 light with V39W
heavy: B1 heavy
chain: B1 chain

Changes are numbered by the printed parent chain. Names and notes keep the numbering of the source.

T1 sequence (P07766 23-126): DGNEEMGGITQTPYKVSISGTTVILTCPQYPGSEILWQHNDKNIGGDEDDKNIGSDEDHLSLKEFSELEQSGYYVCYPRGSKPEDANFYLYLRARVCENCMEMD

This assay concerns the target T1, CD3 epsilon homodimer protein (UniProt P07766 23-126).
T1 construct: Construct of the homodimer is not described; also called CD3 (CD3 epsilon)
In words: SPR Biacore T200, CD3e homodimer on chip, antibody analyte.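 Note: CD3 epsilon homodimer amine-coupled on CM4 sensor chip, antibodies injected as analyte at 25 °C in HBS-EP+, ratio ≥0.8 taken as binding retained versus unaltered parent antibody.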 For orientation: Surface plasmon resonance follows binding to a sensor surface in real time, without labels.
Take B1: the “ratio of amounts bound (altered form/GLS3000)” value worked out at 0.85. The figure for B2 is 0.3.

For the molecule B3, the “ratio of amounts bound (altered form/GLS3000)” value is 0.16. For B4, the “ratio of amounts bound (altered form/GLS3000)” value is 1.18. Under B5 stands 0.59; under B6, 0.83; under B7, 0.5. As for B8, the “ratio of amounts bound (altered form/GLS3000)” value came out at 0.24. Under B9 stands 0.3; under B10, 0.84. Under B11 stands 0.18; under B12, 0.56; under B13, 1.05. As for B14, the “ratio of amounts bound (altered form/GLS3000)” value stood at 0.24.

As for B15, the “ratio of amounts bound (altered form/GLS3000)” value worked out at 0.94. The figure for B16 is 1.58. Under B17 stands 0.62; under B18, 0.23; under B19, 1.08.

Consider B20, for which the “ratio of amounts bound (altered form/GLS3000)” value stood at 0.76.

B21: the “ratio of amounts bound (altered form/GLS3000)” value amounted to 0.54. Consider B22, for which the “ratio of amounts bound (altered form/GLS3000)” value was found to be 0.72. Under B23 stands 0.77; under B24, 0.19. The figure for B25 is 0.69; for B26 it is 0.5.

B27: the “ratio of amounts bound (altered form/GLS3000)” value amounted to 0.78. The figure for B28 is 0.24. B29: the “ratio of amounts bound (altered form/GLS3000)” value was found to be 0.81.

B30: the “ratio of amounts bound (altered form/GLS3000)” value was determined as 0.69. Turning to B31, the “ratio of amounts bound (altered form/GLS3000)” value is 0.93. The figure for B32 is 0.24.

(Values after patent US20240270846A1 (published 2024).)
